Measurements as given in US20260167959A1, “APTAZYME-BASED REGULATABLE GENE EXPRESSION SYSTEMS” (REJUVENATE BIO INC, priority 2022, published 2026).

B1: RA179 (nucleic acid)
DNA: GCGCGTCCTGGATTCGCGGAAACGCGTACATCCAGCTCGGAATACCAGCATCGTCTTGATGCCCTTGGAAGTCCGGACGAGTCCCAAATAGGACGAAACGCGC
modifications: expressed or natural sequence
B2: RA180 (nucleic acid)
DNA: GCGCGTCCTGGATTCGCGGAAACGCGTACATCCAGCTGGAGAATACCAGCATCGTCTTGATGCCCTTGGAAGTCTCACGAGTCCCAAATAGGACGAAACGCGC
modifications: expressed or natural sequence
B3: RA181 (nucleic acid)
DNA: GCGCGCCGGAATACCAGCATCGTCTTGATGCCCTTGGAAGTCCGGTCCTGGATTCGCGGAAACGCGTACATCCAGCTGACGAGTCCCAAATAGGACGAAACGCGC
modifications: expressed or natural sequence
B4: RA182 (nucleic acid)
DNA: GCGCGTCCTGGATTCGCGGAAACGCGGAGAATACCAGCATCGTCTTGATGCCCTTGGAAGTCTCTACATCCAGCTGACGAGTCCCAAATAGGACGAAACGCGC
modifications: expressed or natural sequence
B5: RA183 (nucleic acid)
DNA: GCGCGTCCTGGATTCGCGGAAACGCGTACATCCAGCTGAGAATACCAGCATCGTCTTGATGCCCTTGGAAGTCTACGAGTCCCAAATAGGACGAAACGCGC
modifications: expressed or natural sequence
B6: RA184 (nucleic acid)
DNA: GAGAATACCAGCATCGTCTTGATGCCCTTGGAAGTCTCGCGTCCTGGATTCGCGGAAACGCGTACATCCAGCTGACGAGTCCCAAATAGGACGAAACGCGC
modifications: expressed or natural sequence
B7: RA185 (nucleic acid)
DNA: GCGCGTCCTGGATTCGCGGAAACGCGTACATCCAGCTGACGAGTCCCAAATACGGAATACCAGCATCGTCTTGATGCCCTTGGAAGTCCGGGACGAAACGCGC
modifications: expressed or natural sequence
B8: RA186 (nucleic acid)
DNA: GCGCGTCCTGGATTCGCGCGAGAATACCAGCATCGTCTTGATGCCCTTGGAAGTCTCGGAAACGCGTACATCCAGCTGACGAGTCCCAAATAGGACGAAACGCGC
modifications: expressed or natural sequence
B9: RA187 (nucleic acid)
DNA: GCGCGTCCTGGATTCGCGGAAACGCGTACATCCAGCTGACGAGTCCCAAATAGGACGAAACGCGCGAGAATACCAGCATCGTCTTGATGCCCTTGGAAGTCTC
modifications: expressed or natural sequence
B10: RA018 (nucleic acid)
DNA: GCGCGTCCTGGATTCGCGGAAACGCGTACATCCAGCTGACGAGTCCCAAAGTGATACCAGCATCGTCTTGATGCCCTTGGCAGCACTATAGGACGAAACGCGC
modifications: expressed or natural sequence
B11: RA188 (nucleic acid)
DNA: GCGCGTCCTGGATTCGCGGAAACGCGTACATCCAGCTGACGAGTCCCAAATAGGACGAAGAGAATACCAGCATCGTCTTGATGCCCTTGGAAGTCTCACGCGC
modifications: expressed or natural sequence

These molecules were tested on Renilla luciferase RNA (assay: Barcoded aptazyme variant library screen: un-cleaved Renilla luciferase RNA by barcode read counts, HEK293-T cells). Details: un-cleaved Renilla luciferase RNA, HEK293-T cells cultured with 1 mM theophylline (ON) over without theophylline (OFF); barcode read counts, triplicate.
Format: cell-based
How it was run: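 Barcode sequencing of cDNA versus DNA, normalized per aptazyme, gave the un-cleaved Renilla luciferase RNA fraction and fold-change with versus without theophylline (triplicates). Library: T3H48 ribozyme with one of seven theophylline aptamer variants inserted at each position, placed in the Renilla 3′ UTR of a dual-luciferase vector.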
In the case of B1, the “Fold change in RNA expression between the ON state and the OFF state” value (“Fold change” for short) is reported as 1.3 fold. B2 was tested, and the “Fold change” value was 1.3 fold. For B3, the “Fold change” value was 1.3 fold. With B4 the “Fold change” value was 1.3 fold. For B5, the “Fold change” value was 1.3 fold. In the case of B6, the “Fold change” value is reported as 1.3 fold. B7 was tested, and the “Fold change” value was 1.3 fold. In the case of B8, the “Fold change” value is reported as 1.3 fold. For B9, the “Fold change” value was 1.3 fold. For B10, the “Fold change” value was 2.8 fold. With B11 the “Fold change” value was 1.2 fold.
